Data published in PMC10024175, “Structuring supramolecular hyaluronan hydrogels via peptide self-assembly for modulating the cell microenvironment” (Materials Today Bio, 2023).

B1: (KI)5K peptide (peptide)
peptide: Ac-KIKIKIKIKIK-NH2
notes: rationally designed cationic amphipathic peptide; Synthesised on a rink amide MBHA resin, so the C-terminus is probably an amide (surmised); source: synthetic peptide (Fmoc solid-phase synthesis, purified by preparative RP-HPLC)
B2: (KI)6K peptide (peptide)
peptide: Ac-KIKIKIKIKIKIK-NH2
notes: as for B1
B3: (KI)2K peptide (peptide)
peptide: Ac-KIKIK-NH2
notes: as for B1
B4: (KI)3K peptide (peptide)
peptide: Ac-KIKIKIK-NH2
notes: as for B1
B5: (KI)4K peptide (peptide)
peptide: Ac-KIKIKIKIK-NH2
notes: as for B1

Tests used:
[1] = target: the molecule itself; assay: zeta potential; 1 mM peptide in ultrapure water, neutral pH; self-association of the peptide
[2] = target: the molecule itself; assay: FTIR spectroscopy; 10 mM peptide in D2O, pH 7, NaCl 0, 50, 100, 200, 300 and 400 mM; beta-sheet formation read as self-assembly
[3] = target: the molecule itself; assay: transmission electron microscopy; 1 mM peptide in deionized water, pH 11 (NH4OH), negative staining with uranyl acetate, dried on the grid

Protein	binding result [3]	also measured
B1		binding result [1]: binds
B2		binding result [2]: binds
B3	binds	
B4	binds	
B5	binds	
